From paper PMC9352680, “A comprehensive thermodynamic model for RNA binding by the Saccharomyces cerevisiae Pumilio protein PUF4”

T1: PUF4 RNA-binding domain (Saccharomyces cerevisiae, UniProt P25339 537-888)
T1 sequence: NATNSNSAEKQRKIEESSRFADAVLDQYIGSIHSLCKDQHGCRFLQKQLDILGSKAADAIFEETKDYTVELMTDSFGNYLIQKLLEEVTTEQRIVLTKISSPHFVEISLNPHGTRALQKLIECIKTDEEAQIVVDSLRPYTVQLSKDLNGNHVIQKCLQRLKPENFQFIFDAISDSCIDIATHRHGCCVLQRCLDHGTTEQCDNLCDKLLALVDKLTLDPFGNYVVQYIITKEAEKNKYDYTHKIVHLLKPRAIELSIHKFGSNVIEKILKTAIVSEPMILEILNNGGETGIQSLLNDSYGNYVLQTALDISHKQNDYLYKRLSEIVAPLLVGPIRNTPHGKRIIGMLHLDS


Molecular target: T1, PUF4 RNA-binding domain
Assay: Mg; RNA-MaP; 20 mM Na-HEPES pH 7.4, 30 mM KOAc, 0.75 mM MgCl2, 0.1% Tween-20, 5% glycerol, 0.1 mg/mL BSA, 2 mM DTT; 25 C; 0.0125-409.6 nM protein
Conditions: tags: N-His6-TEV cleaved; C-SNAP kept, Cy3B-labelled; label: tethered on chip by stalled RNA polymerase

Row | Binder | Kd [nM]
1 | UCUCUUAACUGUAUAUAUAUCUCUU (ssRNA) [Id_i_S1_P3E.5_K3.1_C3.3_[T-3A]_[C-2A]_[T-1C]_H3.1_A3.1_F3.1_T3.2] | 6.08
2 | UCUCUUCCUAUAUUAUCUCUU (ssRNA) [Ib_S1_P4E.1_K4.1_C4.1_H4.1_[T1C]_[G2C]_A4.1_F4.1_T4.1] | 1290
3 | UCUCUUGUCUAUAUAUAUAUCUCUU (ssRNA) [Id_i_S1_P3E.6_K3.2_C3.3_[T-3G]_[C-2T]_[T-1C]_H3.2_A3.1_F3.1_T3.2] | 102
4 | UCUCUUCACUGUAUAUAUAUCUCUU (ssRNA) [Id_i_S1_P3E.5_K3.1_C3.3_[T-3C]_[C-2A]_[T-1C]_H3.1_A3.1_F3.1_T3.2] | 5.56
5 | UCUCUUCUCACACUAUAUAUCUCUU (ssRNA) [Id_i_S1_P3E.7_K3.3_C3.3_[T-3C]_[C-2T]_[T-1C]_H3.3_A3.1_F3.1_T3.2] | > 2300
6 | UCUCUUGGCUGUAUAUAUAUCUCUU (ssRNA) [Id_i_S1_P3E.5_K3.1_C3.3_[T-3G]_[C-2G]_[T-1C]_H3.1_A3.1_F3.1_T3.2] | 6.92
7 | Id_ii_S2_P3E.2_K3.1_C3.2_[C-2T]_[T-1G]_H3.1_A3.1_F3.1_T3.2 (ssRNA) RNA: UUUGAUUAAUAUGAUAUCGUUCUUUCUUGUGUAUAUAUAUUCUUUCUCGAUAUCAUAUUAAUCUUU | 1.57
8 | Id_ii_S2_P3E.2_K3.1_C3.2_[C-2A]_[T-1C]_H3.1_A3.1_F3.1_T3.2 (ssRNA) RNA: UUUGAUUAAUAUGAUAUCGUUCUUUCUACUGUAUAUAUAUUCUUUCUCGAUAUCAUAUUAAUCUUU | 1.6
9 | Id_ii_S2_P3E.4_K3.3_C3.2_[C-2T]_[T-1A]_H3.3_A3.1_F3.1_T3.2 (ssRNA) RNA: UUUGAUUAAUAUGAUAUCGUUCUUUCUUAACACUAUAUAUUCUUUCUCGAUAUCAUAUUAAUCUUU | 215
10 | Id_i_S2_P3E.3_K3.2_C3.2_[C-2T]_[T-1A]_H3.2_A3.1_F3.1_T3.2 (ssRNA) RNA: UUUGAUUAAUAUGAUAUCGUUCUUUCUUAUAUAUAUAUAUUCUUUCUCGAUAUCAUAUUAAUCUUU | 560
11 | Id_i_S2_P3E.2_K3.1_C3.2_[C-2T]_[T-1A]_H3.1_A3.1_F3.1_T3.2 (ssRNA) RNA: UUUGAUUAAUAUGAUAUCGUUCUUUCUUAUGUAUAUAUAUUCUUUCUCGAUAUCAUAUUAAUCUUU | 4.51
12 | Id_ii_S2_P3E.4_K3.3_C3.2_[C-2A]_[T-1C]_H3.3_A3.1_F3.1_T3.2 (ssRNA) RNA: UUUGAUUAAUAUGAUAUCGUUCUUUCUACACACUAUAUAUUCUUUCUCGAUAUCAUAUUAAUCUUU | 242
13 | Id_ii_S2_P3E.4_K3.3_C3.2_[C-2A]_[T-1A]_H3.3_A3.1_F3.1_T3.2 (ssRNA) RNA: UUUGAUUAAUAUGAUAUCGUUCUUUCUAAACACUAUAUAUUCUUUCUCGAUAUCAUAUUAAUCUUU | 238
14 | Id_ii_S2_P3E.4_K3.3_C3.2_[C-2T]_[T-1C]_H3.3_A3.1_F3.1_T3.2 (ssRNA) RNA: UUUGAUUAAUAUGAUAUCGUUCUUUCUUCACACUAUAUAUUCUUUCUCGAUAUCAUAUUAAUCUUU | 222
15 | Id_ii_S2_P3E.3_K3.2_C3.2_[C-2T]_[T-1C]_H3.2_A3.1_F3.1_T3.2 (ssRNA) RNA: UUUGAUUAAUAUGAUAUCGUUCUUUCUUCUAUAUAUAUAUUCUUUCUCGAUAUCAUAUUAAUCUUU | 71.4
16 | Id_ii_S2_P3E.3_K3.2_C3.2_[C-2A]_[T-1C]_H3.2_A3.1_F3.1_T3.2 (ssRNA) RNA: UUUGAUUAAUAUGAUAUCGUUCUUUCUACUAUAUAUAUAUUCUUUCUCGAUAUCAUAUUAAUCUUU | 66.8
17 | Id_i_S2_P3E.2_K3.1_C3.2_[C-2T]_[T-1C]_H3.1_A3.1_F3.1_T3.2 (ssRNA) RNA: UUUGAUUAAUAUGAUAUCGUUCUUUCUUCUGUAUAUAUAUUCUUUCUCGAUAUCAUAUUAAUCUUU | 1.18
18 | UCUCUUCAAUAUAUAUAUAUCUCUU (ssRNA) [Id_i_S1_P3E.6_K3.2_C3.3_[T-3C]_[C-2A]_[T-1A]_H3.2_A3.1_F3.1_T3.2] | 777
19 | UCUCUUCUCUGUAUAUAUAUCUCUU (ssRNA) [Id_i_S1_P3E.5_K3.1_C3.3_[T-3C]_[C-2T]_[T-1C]_H3.1_A3.1_F3.1_T3.2] | 4.39
20 | UCUCUUCGCUAUAUAUAUAUCUCUU (ssRNA) [Id_i_S1_P3E.6_K3.2_C3.3_[T-3C]_[C-2G]_[T-1C]_H3.2_A3.1_F3.1_T3.2] | 517
21 | UCUCUUAGCACACUAUAUAUCUCUU (ssRNA) [Id_i_S1_P3E.7_K3.3_C3.3_[T-3A]_[C-2G]_[T-1C]_H3.3_A3.1_F3.1_T3.2] | > 2300
22 | UCUCUUAGCUGUAUAUAUAUCUCUU (ssRNA) [Id_i_S1_P3E.5_K3.1_C3.3_[T-3A]_[C-2G]_[T-1C]_H3.1_A3.1_F3.1_T3.2] | 7.66
23 | UCUCUUCUGUAUAUAUAUAUCUCUU (ssRNA) [Id_i_S1_P3E.6_K3.2_C3.3_[T-3C]_[C-2T]_[T-1G]_H3.2_A3.1_F3.1_T3.2] | 8.87
24 | UCUCUUUGUAUACUUUCUCUU (ssRNA) [Ic_S1_P4E.1_K4.1_C4.1_H4.1_A4.1_[T7C]_F4.1_[A9T]_T4.1] | 5.99
25 | UCUCUUAUCUAUAUAUAUAUCUCUU (ssRNA) [Id_i_S1_P3E.6_K3.2_C3.3_[T-3A]_[C-2T]_[T-1C]_H3.2_A3.1_F3.1_T3.2] | 650
26 | UCUCUUAUCACACUAUAUAUCUCUU (ssRNA) [Id_i_S1_P3E.7_K3.3_C3.3_[T-3A]_[C-2T]_[T-1C]_H3.3_A3.1_F3.1_T3.2] | 1520

Row | Binder | Kd [nM]
27 | UCUCUUAAAUAUAUAUAUAUCUCUU (ssRNA) [Id_i_S1_P3E.6_K3.2_C3.3_[T-3A]_[C-2A]_[T-1A]_H3.2_A3.1_F3.1_T3.2] | 1040
28 | UCUCUUGACUAUAUAUAUAUCUCUU (ssRNA) [Id_i_S1_P3E.6_K3.2_C3.3_[T-3G]_[C-2A]_[T-1C]_H3.2_A3.1_F3.1_T3.2] | 806
29 | UCUCUUAGCUAUAUAUAUAUCUCUU (ssRNA) [Id_i_S1_P3E.6_K3.2_C3.3_[T-3A]_[C-2G]_[T-1C]_H3.2_A3.1_F3.1_T3.2] | 805
30 | UCUCUUGGCACACUAUAUAUCUCUU (ssRNA) [Id_i_S1_P3E.7_K3.3_C3.3_[T-3G]_[C-2G]_[T-1C]_H3.3_A3.1_F3.1_T3.2] | 821
31 | UCUCUUCAAACACUAUAUAUCUCUU (ssRNA) [Id_i_S1_P3E.7_K3.3_C3.3_[T-3C]_[C-2A]_[T-1A]_H3.3_A3.1_F3.1_T3.2] | 2040
32 | UCUCUUGUCUGUAUAUAUAUCUCUU (ssRNA) [Id_i_S1_P3E.5_K3.1_C3.3_[T-3G]_[C-2T]_[T-1C]_H3.1_A3.1_F3.1_T3.2] | 4.63
33 | UCUCUUCUAACACUAUAUAUCUCUU (ssRNA) [Id_i_S1_P3E.7_K3.3_C3.3_[T-3C]_[C-2T]_[T-1A]_H3.3_A3.1_F3.1_T3.2] | > 2300
34 | UCUCUUACACACUAUAUAUCUCUU (ssRNA) [Id_i_S1_P3E.4_K3.3_C3.2_[C-2A]_[T-1C]_H3.3_A3.1_F3.1_T3.2] | 998
35 | UCUCUUAAACACUAUAUAUCUCUU (ssRNA) [Id_i_S1_P3E.4_K3.3_C3.2_[C-2A]_[T-1A]_H3.3_A3.1_F3.1_T3.2] | > 2300
36 | UCUCUUCAAUGUAUAUAUAUCUCUU (ssRNA) [Id_i_S1_P3E.5_K3.1_C3.3_[T-3C]_[C-2A]_[T-1A]_H3.1_A3.1_F3.1_T3.2] | 7.95
37 | UCUCUUCACUAUAUAUAUAUCUCUU (ssRNA) [Id_i_S1_P3E.6_K3.2_C3.3_[T-3C]_[C-2A]_[T-1C]_H3.2_A3.1_F3.1_T3.2] | 144
38 | UCUCUUGUCACACUAUAUAUCUCUU (ssRNA) [Id_i_S1_P3E.7_K3.3_C3.3_[T-3G]_[C-2T]_[T-1C]_H3.3_A3.1_F3.1_T3.2] | 39
39 | UCUCUUCGCUGUAUAUAUAUCUCUU (ssRNA) [Id_i_S1_P3E.5_K3.1_C3.3_[T-3C]_[C-2G]_[T-1C]_H3.1_A3.1_F3.1_T3.2] | 8.53
40 | UCUCUUGCUAUAUUAUCUCUU (ssRNA) [Ib_S1_P4E.1_K4.1_C4.1_H4.1_[T1G]_[G2C]_A4.1_F4.1_T4.1] | 481
41 | UCUCUUCUCUAUAUAUAUAUCUCUU (ssRNA) [Id_i_S1_P3E.6_K3.2_C3.3_[T-3C]_[C-2T]_[T-1C]_H3.2_A3.1_F3.1_T3.2] | 389
42 | UCUCUUAUCUGUAUAUAUAUCUCUU (ssRNA) [Id_i_S1_P3E.5_K3.1_C3.3_[T-3A]_[C-2T]_[T-1C]_H3.1_A3.1_F3.1_T3.2] | 6.91
43 | UCUCUUAACACACUAUAUAUCUCUU (ssRNA) [Id_i_S1_P3E.7_K3.3_C3.3_[T-3A]_[C-2A]_[T-1C]_H3.3_A3.1_F3.1_T3.2] | 2180
44 | UCUCUUUGUAUAAUUUCUCUU (ssRNA) [Ib_S1_P4E.1_K4.1_C4.1_H4.1_A4.1_[T7A]_F4.1_[A9T]_T4.1] | 8.41
45 | UCUCUUAAAUGUAUAUAUAUCUCUU (ssRNA) [Id_i_S1_P3E.5_K3.1_C3.3_[T-3A]_[C-2A]_[T-1A]_H3.1_A3.1_F3.1_T3.2] | 10.3
46 | UCUCUUCUAUGUAUAUAUAUCUCUU (ssRNA) [Id_i_S1_P3E.5_K3.1_C3.3_[T-3C]_[C-2T]_[T-1A]_H3.1_A3.1_F3.1_T3.2] | 10.2
47 | UCUCUUGUUAUAUUAUCUCUU (ssRNA) [Ib_S1_P4E.1_K4.1_C4.1_H4.1_[T1G]_[G2T]_A4.1_F4.1_T4.1] | 12.3
48 | UCUCUUAAAACACUAUAUAUCUCUU (ssRNA) [Id_i_S1_P3E.7_K3.3_C3.3_[T-3A]_[C-2A]_[T-1A]_H3.3_A3.1_F3.1_T3.2] | 2250
49 | Id_i_S2_P3E.5_K3.1_C3.3_[T-3G]_[C-2T]_[T-1C]_H3.1_A3.1_F3.1_T3.2 (ssRNA) RNA: UUUGAUUAAUAUGAUAUCGUUCUUUCUGUCUGUAUAUAUAUUCUUUCUCGAUAUCAUAUUAAUCUUU | 2.83
50 | Id_i_S2_P3E.5_K3.1_C3.3_[T-3C]_[C-2T]_[T-1G]_H3.1_A3.1_F3.1_T3.2 (ssRNA) RNA: UUUGAUUAAUAUGAUAUCGUUCUUUCUCUGUGUAUAUAUAUUCUUUCUCGAUAUCAUAUUAAUCUUU | 1.23
51 | Id_i_S2_P3E.5_K3.1_C3.3_[T-3C]_[C-2T]_[T-1C]_H3.1_A3.1_F3.1_T3.2 (ssRNA) RNA: UUUGAUUAAUAUGAUAUCGUUCUUUCUCUCUGUAUAUAUAUUCUUUCUCGAUAUCAUAUUAAUCUUU | 0.917
52 | UCUCUUCUAUAUAUAUAUAUCUCUU (ssRNA) [Id_i_S1_P3E.6_K3.2_C3.3_[T-3C]_[C-2T]_[T-1A]_H3.2_A3.1_F3.1_T3.2] | 341
